Biological target: native psiRNP containing Cmr1-1, Cmr1-2, Cmr2, Cmr3, Cmr4, Cmr5, Cmr6 (Pyrococcus furiosus, UniProt Q8U1S5;Q8U3V3;Q8U1S6;Q8U1S7;Q8U1S9;Q8U1T0;Q8U1T1 …)
Test: EMSA; native gel Northern with psiRNA 7.01 probe; mobility shift lost on deproteinization
Conditions: tags: S-sepharose peak fraction, endogenous psiRNAs; other co-purifying proteins present

B1: psiRNA 7.01, 45 nt (ssRNA)
RNA: AUUGAAAGUUGUAGUAUGCGGUCCUUGCGGCUGAGAGCACUUCAG
B1: binds.

— US20110189776, “PROKARYOTIC RNAi-LIKE SYSTEM AND METHODS OF USE” (University of Georgia Research Foundation, Inc., published 2011)
